EC50, CRE-luciferase reporter in HEK293-GLP1R-CRE-Luc cells data for 1 substance are collected here from patent US20220298215A1.

The experiment concerns the target glucagon-like peptide 1 (GLP-1) receptor. Kind of experiment: cell-based or functional assay.

Chain of glucagon-like peptide 1 (GLP-1) receptor (P43220 24-463): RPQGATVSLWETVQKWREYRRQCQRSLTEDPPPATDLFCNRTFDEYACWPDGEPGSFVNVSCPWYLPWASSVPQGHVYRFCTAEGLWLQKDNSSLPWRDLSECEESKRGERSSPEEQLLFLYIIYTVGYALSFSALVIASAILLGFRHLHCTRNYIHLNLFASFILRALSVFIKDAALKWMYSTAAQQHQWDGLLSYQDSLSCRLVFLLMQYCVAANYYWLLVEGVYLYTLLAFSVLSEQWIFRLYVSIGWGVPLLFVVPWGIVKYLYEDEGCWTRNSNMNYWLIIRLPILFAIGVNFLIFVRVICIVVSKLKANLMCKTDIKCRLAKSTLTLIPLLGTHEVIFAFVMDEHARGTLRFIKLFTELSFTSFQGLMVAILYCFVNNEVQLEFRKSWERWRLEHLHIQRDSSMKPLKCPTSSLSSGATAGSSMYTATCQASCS

Substance Dulaglutide (Fc fusion) displayed an EC50, CRE-luciferase reporter in HEK293-GLP1R-CRE-Luc cells of 0.0237 nM.
